Data as given in doi:10.1101/2025.06.29.662139 (bioRxiv, 2025).
Changes are numbered by the printed parent chain. Numbers in names are those of the source.

B1: anti-CD33 antibody variant S11 (antibody, V domains shown)
VH: QVQLVQSGAEVKKPGSSVKVSCKASGGIFSNHRISWVRQAPGQGLEWMGGIIPIFGTANYAQKFQGRVTITADESTSTAFMELSSLRSEDTAVYYCARAWADVFDIWGQGTMVTVSS
VL: EIVLTQSPLSLPVTPGEPASISCRSSQSLLHSNGYNYLDWYLQKPGQSPQLLIYLGVNSVSGVPDRFSGSGSGTDFTLKISRVEAEDVGVYYCMQALQTPWTFGQGTKVEIK
B2: anti-CD33 antibody W96F (antibody, V domains shown)
VH: B1 VH with R33A, A99E, W100F
VL: B1 VL

Target: human CD33 protein (R&D Systems) (Homo sapiens, UniProt P20138)
Sequence (P20138 18-259): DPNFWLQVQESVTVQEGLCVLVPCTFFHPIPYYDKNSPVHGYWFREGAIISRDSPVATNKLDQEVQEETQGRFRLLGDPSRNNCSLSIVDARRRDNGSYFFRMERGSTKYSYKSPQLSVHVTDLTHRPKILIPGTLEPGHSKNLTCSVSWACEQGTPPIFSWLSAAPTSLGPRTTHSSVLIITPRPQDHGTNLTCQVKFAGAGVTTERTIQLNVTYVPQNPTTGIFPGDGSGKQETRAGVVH
Assay: SPR

Binder	fold reduction in binding affinity (KD) against the lead candidate	binding result	fold loss of binding affinity against the parent antibody
B1	1.4 fold		
B2		no binding	> 1000 fold
